Assay results as given in PMC6201953.

Key:
[1] = molecular target: HIV-1 HXB2 envelope glycoprotein (Env) (HIV-1 (isolate HXB2)) (UniProt P04578)
[2] = molecular target: HIV-1 HXB2 envelope glycoprotein (Env) (HIV-1 (isolate HXB2)) (UniProt P04578); remark: listed apart in the source
[3] = molecular target: HIV-1 ZM651 envelope glycoprotein (Env) (HIV-1 (isolate ZM651))
[4] = molecular target: HIV-1 YU2 envelope glycoprotein (Env) (HIV-1 (isolate YU2)) (UniProt P35961)
[5] = molecular target: HIV-1 BG505 envelope glycoprotein (Env) (HIV-1 (isolate BG505)) (UniProt Q2N0S6)
[6] = molecular target: HIV-1 HXB2 envelope glycoprotein (Env) (HIV-1 (isolate HXB2)) (UniProt P04578); remark: listed apart in the source
[7] = molecular target: HIV-1 YU2 envelope glycoprotein (Env) (HIV-1 (isolate YU2)) (UniProt P35961); remark: listed apart in the source

Chain of UniProt P35961 (P35961 32-843): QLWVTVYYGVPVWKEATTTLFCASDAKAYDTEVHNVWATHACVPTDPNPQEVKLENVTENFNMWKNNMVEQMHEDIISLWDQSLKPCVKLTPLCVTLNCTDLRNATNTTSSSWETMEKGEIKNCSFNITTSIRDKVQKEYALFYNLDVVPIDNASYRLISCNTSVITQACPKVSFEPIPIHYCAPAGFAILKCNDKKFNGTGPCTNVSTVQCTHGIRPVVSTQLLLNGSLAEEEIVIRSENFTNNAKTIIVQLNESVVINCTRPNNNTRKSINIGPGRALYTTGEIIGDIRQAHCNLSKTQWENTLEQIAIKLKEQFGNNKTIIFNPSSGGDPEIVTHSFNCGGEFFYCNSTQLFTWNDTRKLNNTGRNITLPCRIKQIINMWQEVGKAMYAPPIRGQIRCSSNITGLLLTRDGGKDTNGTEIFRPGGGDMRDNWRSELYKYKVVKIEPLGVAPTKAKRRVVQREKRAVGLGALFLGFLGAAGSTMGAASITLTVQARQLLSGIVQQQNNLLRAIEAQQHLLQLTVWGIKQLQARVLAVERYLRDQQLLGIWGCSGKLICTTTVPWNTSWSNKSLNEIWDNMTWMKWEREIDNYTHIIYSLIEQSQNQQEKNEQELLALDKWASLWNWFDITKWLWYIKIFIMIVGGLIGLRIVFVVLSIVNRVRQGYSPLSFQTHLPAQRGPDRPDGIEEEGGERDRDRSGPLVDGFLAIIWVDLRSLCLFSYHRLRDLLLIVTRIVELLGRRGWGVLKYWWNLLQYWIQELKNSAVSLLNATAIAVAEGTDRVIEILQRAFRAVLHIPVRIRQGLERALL

Substance | Env-mediated cell-cell fusion (SRFA), fusion level with 10 μg/mL antibody; the pair said to be blocked is CD4 (on HeLa.CD4-DSP2 cells) with gp120 [1] | Env-mediated cell-cell fusion (SRFA), CHO-DSP1 cells with HIV-1 HXB2 Env and HeLa.CD4-DSP2 cells, fusion level at 1 μg/mL (Fig 1D; concentration dependent over 10-1000 ng/mL, Fig 3A) (% of untreated control) [2] | Env-mediated cell-cell fusion (SRFA), fusion level at 260 nM (% of untreated control) [2] | IC50 of neutralisation of HIV-1 pseudovirus (TZM-bl assay) [3] [µg/mL] | IC90 of neutralisation of HIV-1 pseudovirus (TZM-bl assay) [3] [µg/mL] | IC50 of neutralisation of HIV-1 pseudovirus (TZM-bl assay) [4] [µg/mL] | IC90 of neutralisation of HIV-1 pseudovirus (TZM-bl assay) [4] [µg/mL] | IC50 of neutralisation of HIV-1 pseudovirus (TZM-bl assay) [5] [µg/mL] | IC90 of neutralisation of HIV-1 pseudovirus (TZM-bl assay) [5] [µg/mL] | IC50 of neutralisation of HIV-1 pseudovirus (TZM-bl assay) [6] [µg/mL] | IC90 of neutralisation of HIV-1 pseudovirus (TZM-bl assay) [6] [µg/mL] | Env-mediated cell-cell fusion (SRFA), CHO-DSP1 cells with HIV-1 YU2 Env and HeLa.CD4-DSP2 cells with CCR5, fusion level at 260 nM (% of untreated control) [7]
VRC03 (antibody) | 53 % of control |  |  |  |  |  |  |  |  |  |  | 
eCD4-Ig^mim2 (Fc fusion) |  | 18 | 2 | 0.468 | 1.65 | 0.003 | 0.009 | 0.258 | 0.83 | 0.0008 | 0.002 | 30
